Values of other authors, collected in patent publication US9012177B2, “Methods and compositions for improving sugar transport, mixed sugar fermentation, and production of biofuels” (The Regents of the University of California, priority 2009, dated 2015).
Like-named read-outs stand apart in the source and are kept apart here.

Settings: saturated xylitol, Watanabe et al. (2005b)

B1: psXDH (protein, UniProt P22144 1-363, looked up)
D-xylulose reductase: MTANPSLVLNKIDDISFETYDAPEISEPTDVLVQVKKTGICGSDIHFYAHGRIGNFVLTKPMVLGHESAGTVVQVGKGVTSLKVGDNVAIEPGIPSRFSDEYKSGHYNLCPHMAFAATPNSKEGEPNPPGTLCKYFKSPEDFLVKLPDHVSLELGALVEPLSVGVHASKLGSVAFGDYVAVFGAGPVGLLAAAVAKTFGAKGVIVVDIFDNKLKMAKDIGAATHTFNSKTGGSEELIKAFGGNVPNVVLECTGAEPCIKLGVDAIAPGGRFVQVGNAAGPVSFPITVFAMKELTLFGSFRYGFNDYKTAVGIFDTNYQNGRENAPIDFEQLITHRYKFKDAIEAYDLVRAGKGAVKCLIDGPE
- Km (NAD+): 381 µM
- kcat (NAD+): 17.5 s⁻¹
- kcat (NADP+): 1.83 s⁻¹
